The values that follow are results of earlier work, collected in article PMC7156917.

One data set addresses CXCR4 (Homo sapiens) (UniProt P61073). Description: SPR.
The target of the next data set is CCR5 (Homo sapiens) (UniProt P51681). Put plainly: equilibrium binding assay.
Sequence of UniProt P51681 (P51681 whole entry): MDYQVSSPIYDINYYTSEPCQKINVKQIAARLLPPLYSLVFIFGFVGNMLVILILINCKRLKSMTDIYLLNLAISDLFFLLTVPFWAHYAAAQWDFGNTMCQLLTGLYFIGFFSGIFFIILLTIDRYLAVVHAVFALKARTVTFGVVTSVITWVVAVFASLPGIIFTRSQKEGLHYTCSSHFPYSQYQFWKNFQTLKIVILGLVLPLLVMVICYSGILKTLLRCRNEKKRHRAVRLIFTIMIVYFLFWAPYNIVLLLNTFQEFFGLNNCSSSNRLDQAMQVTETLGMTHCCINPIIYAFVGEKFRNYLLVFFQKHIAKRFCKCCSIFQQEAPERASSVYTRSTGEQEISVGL

Sequence of UniProt P61073 (P61073 whole entry): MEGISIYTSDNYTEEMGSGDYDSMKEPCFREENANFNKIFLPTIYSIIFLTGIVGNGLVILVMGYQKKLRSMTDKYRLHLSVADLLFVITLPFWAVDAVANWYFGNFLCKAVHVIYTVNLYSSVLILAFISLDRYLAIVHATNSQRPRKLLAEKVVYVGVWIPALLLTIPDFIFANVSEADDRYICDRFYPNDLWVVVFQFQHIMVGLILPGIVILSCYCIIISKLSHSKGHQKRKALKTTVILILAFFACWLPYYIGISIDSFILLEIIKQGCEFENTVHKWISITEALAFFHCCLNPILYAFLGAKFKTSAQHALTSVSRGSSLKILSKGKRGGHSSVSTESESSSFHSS

For “HIV Env gp120 gp120 (from UniProt O70902)”, the Kd in the data set with CXCR4 (Homo sapiens) was 500 nM; with CCR5 (Homo sapiens), 5 nM.

One may read the Kd as the equilibrium constant for the complex coming apart.
